Source: the supplement of paper PMC9170038

System: MS2 coat protein
Assay: apparent KD of MS2 coat protein; higher = weaker reporter binding
Conditions: Eterna round: R107
Summary of the method: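 Illumina sequencing clusters served as templates for on-chip transcription of the designed RNA switches. SNAP-549-labelled MS2 coat protein was then titrated in twofold steps from 0.7 or 1.5 nM to 3 µM, allowing 0.8–1.5 h per step at first and 10–20 min per step later. The buffer held 100 mM Tris-HCl pH 7.5, 80 mM KCl and 4 mM MgCl2, without or with constant ligand. Apparent KD is the median per design of normalised cluster binding-curve fits.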

[1] = input ligand: theophylline 20 uM
[2] = input ligand: theophylline 2 mM
[3] = input ligand: tryptophan 2.4 mM

Sequence	apparent KD of MS2 coat protein (input ligand: arginine 13.2 mM) [nM]	apparent KD of MS2 coat protein [1] [nM]	apparent KD of MS2 coat protein [2] [nM]	apparent KD of MS2 coat protein [3] [nM]	apparent KD of MS2 coat protein (input ligand: none) [nM]
ACAUGAGGAUCACCCAUGUGUGUAAAUCCUCGAGGACCGGUACGGCCGCCACUCGAUUGAGUGUAAGUUGAAUGUAACAUUCAAC [whbob_SS_trypto A_2s9]	46	134	144		
UGAUCCUAGACUGAUACCAGUCAUGAGUACAUGAGGAUCACCCAUGUCCAGGGACUCAAUGACCCUUGGCAGCAGAACCUAGUUC [Theo B SS t7]	155	414		389	
AGGGAACAUGAGGAUCACCCAUGUGCCGAUACCAGUGAUUUUCAGCACCCUUGGCAGCGGAACCUUUGUUAUAUUAUUCUUAGGG [theeternabot_sameState_MS2_Theo_A_25]	32.5	42.4		41.2	
GGGCGUGUGGUGCGGCGUGUUCCGCUCCGUCGAGGACCGGUACGGCCGCCACUCGACAUGAGGAUCACCCAUGUGCGAGCGCGCG [#1 Exclusion - Tryptophan A Attempt #8 (HarryS)]	13.2	13.2	11.7	19.2	11.5
AUCGUACCUGAUGAUACCAGCAAUUGCUCGUAACAUGAGGAUCACCCAUGUGACCAGUGAUGCCCUUGGCAGCAUGAUCGGUGCA [Same State - Theophylline B (Freestyle 20)]	45.7	48.9		45.8	
AACACAUGAGGAUCACCCAUGUCCAUGUACCGAGGACCGGUACGGCCGCCACUCGACAUGAGGAUCACCCAUGUUCCAUGUUGUC [Same State Tryptophan A 3]	76	131	146		
UGGUACAUGGCGGCCGCCACUUCACGUAAAAUAAAAGCGUGAGGAUCACCCAUGCAAUAAGUUGGGAGGACCGGGUCAUGUACCU	311	633	387	244	287
AGGUACGGAAUCCUCAUGUAGUCGUACCAACGAGGACCGGUACGGCCGCCACUCGAAUAAACAUGAGGAUCACCCAUGUAAUAAU [T''-M-T'-T-MS2]	17.6	97.3	90.1		
UACUUGCUGACGGCCGCCACUAGAACAUGAGGAUCACCCAUGUAUCUAGUGGCAAUCCUCAUGACUAGGACCGGGUCAGCAAGAU [(Trp1)-(Ms2)-(T)'-(M)'-(Trp2)_Design1]	8.26	10.4	9.58		
AUAACAUGAGGAUCACCCAUGUAAGCAGAUACCAGCUAGGAAACUAGCCCUUGGCAGCUGCAUUCCUCAUGUAGGUAUCUGCUAA [(M1)-(M2)-(T1)-(T2)-(M)'-(T)'_Design4]	18.4	22.1		16.1	
AAGUAAACAUGAGCAAAGCUCAUGUGCGAAGGAGCGGCGGAAACGCCAGGUAGGUCGCGCACAUGAGCAUCAGCCAUGUGUGUCA [Omei Arginine B SS A v1]	11.2	89.8	58.9	52.9	37.9
ACGUCAUGGAGAACGUGACGACUUGUCGAUACCAGUGUUUGAUAGCGCCCUUGGCAGCGAACAUGAGGAUCACCCAUGUCAAGGG [#11 SameState-TheophyllineA]	51.7	84.6	88.9	66.4	72.8
UAGAGCCAGUCGGCCGCCACUCUCCAUAUGUGAGCCUUUAAGUUCUACAUGAGGAUCACCCAUGUGAGGACCGGGACCGAAUCUA [theeternabot_exclusion_MS2_Trp_B_18]	39.7	80.3	93.8		
AUUGACGUUGCGGCCGCCACUAGGCGUUCCCGGACAUGAGGAUCACCCAUGUGCUAGAGUGUAACUAGGACCGGGUAACCUCAGC [Verevean]	124	290	260	176	103
UGUAUGGACUGAAGGAGCGGAAGAUAGCUUGAGGAUCACCCAAGUAAUAAGGCGAAAGCCUUCCAGGUAGGUCGCAGUCCAUACU	31.4	43.1	38	38.6	35.2
